Source: US20040131609A1 (published 2004)

B1: clone 3 (PFFF) (Fab, V domains shown)
VH: QVTLRESGPALVKPTQTLTLTCTFSGFSLSTPGMSVGWIRQPPGKALEWLADIWWDDKKDYNPSLKSRLTISKDTSKNQVVLKVTNMDPADTATYYCARSMITNFYFDVWGQGTTVTVSS
VL: DIQMTQSPSTLSASVGDRVTITCSASSSVGYMHWYQQKPGKAPKLLIYDTFKLASGVPSRFSGSGSGTEFTLTISSLQPDDFATYYCFQGSFYPFTFGGGTKVEIK
B2: clone 21 (SWYF) (antibody, V domains shown)
VH: QVTLRESGPALVKPTQTLTLTCTFSGFSLSTSGMSVGWIRQPPGKALEWLADIWWDDKKDYNPSLKSRLTISKDTSKNQVVLKVTNMDPADTATYYCARSMITNWYFDVWGQGTTVTVSS
VL: DIQMTQSPSTLSASVGDRVTITCSASSSVGYMHWYQQKPGKAPKLLIYDTYKLASGVPSRFSGSGSGTEFTLTISSLQPDDFATYYCFQGSFYPFTFGGGTKVEIK
B3: clone 7 (PFFG) (antibody, V domains shown)
VH: QVTLRESGPALVKPTQTLTLTCTFSGFSLSTPGMSVGWIRQPPGKALEWLADIWWDDKKDYNPSLKSRLTISKDTSKNQVVLKVTNMDPADTATYYCARSMITNFYFDVWGQGTTVTVSS
VL: DIQMTQSPSTLSASVGDRVTITCSASSSVGYMHWYQQKPGKAPKLLIYDTFKLASGVPSRFSGSGSGTEFTLTISSLQPDDFATYYCFQGSGYPFTFGGGTKVEIK
B4: clone 11 (PWFW) (antibody, V domains shown)
VH: QVTLRESGPALVKPTQTLTLTCTFSGFSLSTPGMSVGWIRQPPGKALEWLADIWWDDKKDYNPSLKSRLTISKDTSKNQVVLKVTNMDPADTATYYCARSMITNWYFDVWGQGTTVTVSS
VL: DIQMTQSPSTLSASVGDRVTITCSASSSVGYMHWYQQKPGKAPKLLIYDTFKLASGVPSRFSGSGSGTEFTLTISSLQPDDFATYYCFQGSWYPFTFGGGTKVEIK
B5: clone 14 (SFFW) (antibody, V domains shown)
VH: QVTLRESGPALVKPTQTLTLTCTFSGFSLSTSGMSVGWIRQPPGKALEWLADIWWDDKKDYNPSLKSRLTISKDTSKNQVVLKVTNMDPADTATYYCARSMITNFYFDVWGQGTTVTVSS
VL: DIQMTQSPSTLSASVGDRVTITCSASSSVGYMHWYQQKPGKAPKLLIYDTFKLASGVPSRFSGSGSGTEFTLTISSLQPDDFATYYCFQGSWYPFTFGGGTKVEIK
B6: clone 1 (AFSF) (Fab, V domains shown)
VH: QVTLRESGPALVKPTQTLTLTCTFSGFSLSTAGMSVGWIRQPPGKALEWLADIWWDDKKDYNPSLKSRLTISKDTSKNQVVLKVTNMDPADTATYYCARSMITNFYFDVWGQGTTVTVSS
VL: DIQMTQSPSTLSASVGDRVTITCSASSSVGYMHWYQQKPGKAPKLLIYDTSKLASGVPSRFSGSGSGTEFTLTISSLQPDDFATYYCFQGSFYPFTFGGGTKVEIK
B7: clone 13 (SFFF) (antibody, V domains shown)
VH: QVTLRESGPALVKPTQTLTLTCTFSGFSLSTSGMSVGWIRQPPGKALEWLADIWWDDKKDYNPSLKSRLTISKDTSKNQVVLKVTNMDPADTATYYCARSMITNFYFDVWGQGTTVTVSS
VL: DIQMTQSPSTLSASVGDRVTITCSASSSVGYMHWYQQKPGKAPKLLIYDTFKLASGVPSRFSGSGSGTEFTLTISSLQPDDFATYYCFQGSFYPFTFGGGTKVEIK
B8: clone 10 (PFSF) (antibody, V domains shown)
VH: QVTLRESGPALVKPTQTLTLTCTFSGFSLSTPGMSVGWIRQPPGKALEWLADIWWDDKKDYNPSLKSRLTISKDTSKNQVVLKVTNMDPADTATYYCARSMITNFYFDVWGQGTTVTVSS
VL: DIQMTQSPSTLSASVGDRVTITCSASSSVGYMHWYQQKPGKAPKLLIYDTSKLASGVPSRFSGSGSGTEFTLTISSLQPDDFATYYCFQGSFYPFTFGGGTKVEIK
B9: clone 4 (PFFY) (antibody, V domains shown)
VH: QVTLRESGPALVKPTQTLTLTCTFSGFSLSTPGMSVGWIRQPPGKALEWLADIWWDDKKDYNPSLKSRLTISKDTSKNQVVLKVTNMDPADTATYYCARSMITNFYFDVWGQGTTVTVSS
VL: DIQMTQSPSTLSASVGDRVTITCSASSSVGYMHWYQQKPGKAPKLLIYDTFKLASGVPSRFSGSGSGTEFTLTISSLQPDDFATYYCFQGSYYPFTFGGGTKVEIK
B10: clone 9 (PFSW) (antibody, V domains shown)
VH: QVTLRESGPALVKPTQTLTLTCTFSGFSLSTPGMSVGWIRQPPGKALEWLADIWWDDKKDYNPSLKSRLTISKDTSKNQVVLKVTNMDPADTATYYCARSMITNFYFDVWGQGTTVTVSS
VL: DIQMTQSPSTLSASVGDRVTITCSASSSVGYMHWYQQKPGKAPKLLIYDTSKLASGVPSRFSGSGSGTEFTLTISSLQPDDFATYYCFQGSWYPFTFGGGTKVEIK
B11: clone 5 (PFFW) (antibody, V domains shown)
VH: QVTLRESGPALVKPTQTLTLTCTFSGFSLSTPGMSVGWIRQPPGKALEWLADIWWDDKKDYNPSLKSRLTISKDTSKNQVVLKVTNMDPADTATYYCARSMITNFYFDVWGQGTTVTVSS
VL: DIQMTQSPSTLSASVGDRVTITCSASSSVGYMHWYQQKPGKAPKLLIYDTFKLASGVPSRFSGSGSGTEFTLTISSLQPDDFATYYCFQGSWYPFTFGGGTKVEIK
B12: clone 12 (PWFF) (antibody, V domains shown)
VH: QVTLRESGPALVKPTQTLTLTCTFSGFSLSTPGMSVGWIRQPPGKALEWLADIWWDDKKDYNPSLKSRLTISKDTSKNQVVLKVTNMDPADTATYYCARSMITNWYFDVWGQGTTVTVSS
VL: DIQMTQSPSTLSASVGDRVTITCSASSSVGYMHWYQQKPGKAPKLLIYDTFKLASGVPSRFSGSGSGTEFTLTISSLQPDDFATYYCFQGSFYPFTFGGGTKVEIK
B13: clone 19 (SFSW) (antibody, V domains shown)
VH: QVTLRESGPALVKPTQTLTLTCTFSGFSLSTSGMSVGWIRQPPGKALEWLADIWWDDKKDYNPSLKSRLTISKDTSKNQVVLKVTNMDPADTATYYCARSMITNFYFDVWGQGTTVTVSS
VL: DIQMTQSPSTLSASVGDRVTITCSASSSVGYMHWYQQKPGKAPKLLIYDTSKLASGVPSRFSGSGSGTEFTLTISSLQPDDFATYYCFQGSWYPFTFGGGTKVEIK
B14: clone 18 (SFFG) (antibody, V domains shown)
VH: QVTLRESGPALVKPTQTLTLTCTFSGFSLSTSGMSVGWIRQPPGKALEWLADIWWDDKKDYNPSLKSRLTISKDTSKNQVVLKVTNMDPADTATYYCARSMITNFYFDVWGQGTTVTVSS
VL: DIQMTQSPSTLSASVGDRVTITCSASSSVGYMHWYQQKPGKAPKLLIYDTFKLASGVPSRFSGSGSGTEFTLTISSLQPDDFATYYCFQGSGYPFTFGGGTKVEIK
B15: clone 17 (PWSW) (antibody, V domains shown)
VH: QVTLRESGPALVKPTQTLTLTCTFSGFSLSTPGMSVGWIRQPPGKALEWLADIWWDDKKDYNPSLKSRLTISKDTSKNQVVLKVTNMDPADTATYYCARSMITNWYFDVWGQGTTVTVSS
VL: DIQMTQSPSTLSASVGDRVTITCSASSSVGYMHWYQQKPGKAPKLLIYDTSKLASGVPSRFSGSGSGTEFTLTISSLQPDDFATYYCFQGSWYPFTFGGGTKVEIK
B16: clone 16 (PFSG) (antibody, V domains shown)
VH: QVTLRESGPALVKPTQTLTLTCTFSGFSLSTPGMSVGWIRQPPGKALEWLADIWWDDKKDYNPSLKSRLTISKDTSKNQVVLKVTNMDPADTATYYCARSMITNFYFDVWGQGTTVTVSS
VL: DIQMTQSPSTLSASVGDRVTITCSASSSVGYMHWYQQKPGKAPKLLIYDTSKLASGVPSRFSGSGSGTEFTLTISSLQPDDFATYYCFQGSGYPFTFGGGTKVEIK
B17: reference antibody IX-493 (SWSG) (Fab, V domains shown)
VH: QVTLRESGPALVKPTQTLTLTCTFSGFSLSTSGMSVGWIRQPPGKALEWLADIWWDDKKDYNPSLKSRLTISKDTSKNQVVLKVTNMDPADTATYYCARSMITNWYFDVWGQGTTVTVSS
VL: DIQMTQSPSTLSASVGDRVTITCSASSSVGYMHWYQQKPGKAPKLLIYDTSKLASGVPSRFSGSGSGTEFTLTISSLQPDDFATYYCFQGSGYPFTFGGGTKVEIK
notes: also called Basic; basic antibody
B18: clone 6 (PFYF) (antibody, V domains shown)
VH: QVTLRESGPALVKPTQTLTLTCTFSGFSLSTPGMSVGWIRQPPGKALEWLADIWWDDKKDYNPSLKSRLTISKDTSKNQVVLKVTNMDPADTATYYCARSMITNFYFDVWGQGTTVTVSS
VL: DIQMTQSPSTLSASVGDRVTITCSASSSVGYMHWYQQKPGKAPKLLIYDTYKLASGVPSRFSGSGSGTEFTLTISSLQPDDFATYYCFQGSFYPFTFGGGTKVEIK
B19: clone 2 (AFFG) (Fab, V domains shown)
VH: QVTLRESGPALVKPTQTLTLTCTFSGFSLSTAGMSVGWIRQPPGKALEWLADIWWDDKKDYNPSLKSRLTISKDTSKNQVVLKVTNMDPADTATYYCARSMITNFYFDVWGQGTTVTVSS
VL: DIQMTQSPSTLSASVGDRVTITCSASSSVGYMHWYQQKPGKAPKLLIYDTFKLASGVPSRFSGSGSGTEFTLTISSLQPDDFATYYCFQGSGYPFTFGGGTKVEIK
B20: clone 20 (SFSF) (antibody, V domains shown)
VH: QVTLRESGPALVKPTQTLTLTCTFSGFSLSTSGMSVGWIRQPPGKALEWLADIWWDDKKDYNPSLKSRLTISKDTSKNQVVLKVTNMDPADTATYYCARSMITNFYFDVWGQGTTVTVSS
VL: DIQMTQSPSTLSASVGDRVTITCSASSSVGYMHWYQQKPGKAPKLLIYDTSKLASGVPSRFSGSGSGTEFTLTISSLQPDDFATYYCFQGSFYPFTFGGGTKVEIK
B21: clone 15 (AFSG) (antibody, V domains shown)
VH: QVTLRESGPALVKPTQTLTLTCTFSGFSLSTAGMSVGWIRQPPGKALEWLADIWWDDKKDYNPSLKSRLTISKDTSKNQVVLKVTNMDPADTATYYCARSMITNFYFDVWGQGTTVTVSS
VL: DIQMTQSPSTLSASVGDRVTITCSASSSVGYMHWYQQKPGKAPKLLIYDTSKLASGVPSRFSGSGSGTEFTLTISSLQPDDFATYYCFQGSGYPFTFGGGTKVEIK

Each binder was assayed against T1, RSV F antigen (respiratory syncytial virus (RSV), UniProt P03420 26-524) (assay: antibody titration ELISA on 500 ng RSV F antigen; qualitative score from titration curves).
T1 construct: also called F antigen of RSV; RSV F protein
T1 sequence (P03420 26-524): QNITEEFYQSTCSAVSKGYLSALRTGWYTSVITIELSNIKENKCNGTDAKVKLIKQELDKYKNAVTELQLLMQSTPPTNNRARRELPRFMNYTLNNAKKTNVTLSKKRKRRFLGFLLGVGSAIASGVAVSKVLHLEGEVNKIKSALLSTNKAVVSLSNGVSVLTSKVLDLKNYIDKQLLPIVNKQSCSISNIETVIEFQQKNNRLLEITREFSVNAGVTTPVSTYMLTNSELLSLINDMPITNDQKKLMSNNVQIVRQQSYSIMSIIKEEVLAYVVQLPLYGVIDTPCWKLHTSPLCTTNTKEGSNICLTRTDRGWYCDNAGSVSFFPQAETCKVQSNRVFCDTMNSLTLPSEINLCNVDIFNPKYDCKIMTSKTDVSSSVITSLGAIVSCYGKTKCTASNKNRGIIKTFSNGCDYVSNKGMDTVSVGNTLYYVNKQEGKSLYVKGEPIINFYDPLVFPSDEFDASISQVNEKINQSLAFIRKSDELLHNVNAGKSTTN
With B1 the “Ag Score” value was 4 arbitrary score (0-4). For B2, the “Ag Score” value was 2 arbitrary score (0-4). B3 was tested, and the “Ag Score” value was 3 arbitrary score (0-4). B4 was tested, and the “Ag Score” value was 3 arbitrary score (0-4). For B5, the “Ag Score” value was 2.5 arbitrary score (0-4). For B6, the “Ag Score” value was 4 arbitrary score (0-4). In the case of B7, the “Ag Score” value is reported as 2.5 arbitrary score (0-4). B8 was tested, and the “Ag Score” value was 3 arbitrary score (0-4). With B9 the “Ag Score” value was 3.5 arbitrary score (0-4). B10 was tested, and the “Ag Score” value was 3 arbitrary score (0-4). In the case of B11, the “Ag Score” value is reported as 3.5 arbitrary score (0-4). B12 was tested, and the “Ag Score” value was 2.5 arbitrary score (0-4). With B13 the “Ag Score” value was 2 arbitrary score (0-4). With B14 the “Ag Score” value was 2 arbitrary score (0-4). In the case of B15, the “Ag Score” value is reported as 2 arbitrary score (0-4). B16 was tested, and the “Ag Score” value was 2 arbitrary score (0-4). In the case of B17, the “Ag Score” value is reported as 0.1 arbitrary score (0-4). With B18 the “Ag Score” value was 3.5 arbitrary score (0-4). For B19, the “Ag Score” value was 4 arbitrary score (0-4). With B20 the “Ag Score” value was 2 arbitrary score (0-4). In the case of B21, the “Ag Score” value is reported as 2.5 arbitrary score (0-4).
